Data reported in patent US20260364214A1, “MULTIVALENT FIBROBLAST ACTIVATION PROTEIN LIGANDS FOR TARGETED DELIVERY APPLICATIONS” (Philochem AG, priority 2022, published 2026).

Legend:
HT-1080.hFAP tumors = assay: Quantitative in vivo MMAE release in tumor and healthy organs; set-up: species or system mouse (athymic Balb/c AnNRj-Foxn1); details: 250 nmol/kg; vs ESV6-GlyPro-MMAE and Bi-ESV6-GlyPro-MMAE
Excerpt: The ESV6 binding moiety in monomeric, dimeric or trimeric form was conjugated to an identical linker-payload structure based on a Glycine-Proline linker and an MMAE cytotoxic moiety. The three conjugates: (i) ESV6-GlyPro-MMAE—corresponding to Conjugate 58a of EP3891138B1—, (ii) Bi-ESV6-GlyPro-MMAE—corresponding to Conjugate 11 of WO2022/171811A1, and (iii) Tri-ESV6-GlyPro-MMAE—corresponding to Conjugate 9 of the present invention—, were compared in a tumor mouse model to study the efficacy of release of the MMAE cytotoxic moiety into the tumor.
HT-1080.hFAP tumors were implanted into the right flank of athymic Balb/c AnNRj-Foxn1 mice and allowed to grow to an average volume of approximately 200 mm^3. Mice were injected with the three conjugates at a dose of 250 nmol/kg and sacrificed at different timepoints after administration. Fresh blood was collected in lithium heparin tubes (BD Microcontainer LH Tubes), vortexed, and centrifuged (15,000 g, 15 minutes). […] Peak areas of analytes and internal standards were integrated, and corresponding ratios were calculated. The ratios were then transformed into pmol/g of wet tissue using single-concentration external calibration points and corrected by the total weight of the sample analysed. The percentage of injected dose per gram (% ID/g) was finally calculated by normalizing the value based on the total dose injected into the mouse. […]

[1] = Tolerability (body weight change) of MMAE conjugates in HT-1080.hFAP tumor bearing mice; format: in vivo, mouse (athymic Balb/c AnNRj-Foxn1); details: 50 or 125 nmol/kg
Method: The anti-cancer efficacy of (i) ESV6-GlyPro-MMAE (50 or 125 nmol/kg) —corresponding to Conjugate 58a of EP3891138B1—, and (ii) Tri-ESV6-GlyPro-MMAE (50 or 125 nmol/kg) according to the present invention was assessed in athymic Balb/c AnNRj-Foxn1 mice bearing HT-1080.hFAP tumor in the right flank. Therapy experiments started when the average volume of established tumors had reached 80-100 mm3. Body weight of the animals and tumor volume were daily measured and recorded. Tumor dimensions were measured with an electronic caliper and tumor volume was calculated with the formula (long side, mm)×(short side, mm)×(short side, mm)×0.5. Animals were euthanized when one or more termination criterium indicated by the experimental license was reached. Prism 7 software (GraphPad Software) was used for data analysis.

Structure (SMILES): CC[C@@H](C)[C@@H]([C@@H](CC(=O)N1CCC[C@H]1[C@H](OC)[C@@H](C)C(=O)N[C@H](C)[C@@H](O)c1ccccc1)OC)N(C)C(=O)[C@@H](NC(=O)[C@H](C(C)C)N(C)C(=O)OCc1ccc(NC(=O)[C@@H]2CCCN2C(=O)CNC(=O)CCCCCN2C(=O)CC(SC[C@H](NC(=O)[C@H](CC(=O)O)NC(=O)[C@H](CCCCN)NC(=O)[C@H](CC(=O)O)NC(=O)CCC(=O)NC(COCCC(=O)NCCNC(=O)CCC(=O)Nc3cccc4c(C(=O)NCC(=O)N5CC(F)(F)C[C@H]5C#N)ccnc34)(COCCC(=O)NCCNC(=O)CCC(=O)Nc3cccc4c(C(=O)NCC(=O)N5CC(F)(F)C[C@H]5C#N)ccnc34)COCCC(=O)NCCNC(=O)CCC(=O)Nc3cccc4c(C(=O)NCC(=O)N5CC(F)(F)C[C@H]5C#N)ccnc34)C(=O)O)C2=O)cc1)C(C)C (stereo in doubt) [Tri-ESV6-GlyPro-MMAE]
- MMAE release in tumor and healthy organs, in words (HT-1080.hFAP tumors): cleaner biodistribution profile, with high and prolonged accumulation at the tumor site, and lower release in the healthy organs
- tolerability (body weight change), in words [1]: well tolerated
